First the molecules themselves.
T1: Recombinant human IL-23 receptor (IL-23R) extracellular domain (ECD) protein (human, UniProt Q5VWK5 24-355)
T1 construct: also called human IL-23R ECD; hu IL-23R ECD
T1 sequence: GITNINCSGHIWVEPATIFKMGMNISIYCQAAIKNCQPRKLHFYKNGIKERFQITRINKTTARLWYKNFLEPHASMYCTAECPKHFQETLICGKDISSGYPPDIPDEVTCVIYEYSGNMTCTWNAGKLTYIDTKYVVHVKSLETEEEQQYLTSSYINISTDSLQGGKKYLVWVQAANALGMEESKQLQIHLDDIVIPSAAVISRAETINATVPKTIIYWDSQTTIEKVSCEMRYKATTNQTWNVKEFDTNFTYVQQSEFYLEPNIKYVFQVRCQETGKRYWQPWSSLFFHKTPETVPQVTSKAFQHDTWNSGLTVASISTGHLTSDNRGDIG

B1: I23RB69 (antibody, mouse IgG2a, kappa, V domains shown)
VH: EVQLQQSGAELVKPGASVKISCKASGYSFTGYNMNWVKQSHGKSLEWIGNINPFYDKTSYNQKFKGKATLTVDKASSTAYMQLNSLTSEDSAVYYCARQLGLKGFAYWGQGTLVTVSA
VL: DIVMTQSHKFMSTSVGDRVSITCKASQDVSTAVAWYQQKPGQSPKLLIYSASYRYTGVPDRFTGSGSGTDFTFTISSVQAEDLAVYYCQQHYSTPWTFGGGTKLEMKR
notes: mouse immunization; mouse IgG2a/kappa
B2: I23RB91 (antibody, mouse IgG2a, kappa, V domains shown)
VH: EFQLQQFGPELLKPGASVKISCKASGYTFTDYIMHWVKQSHGKSLEWIGGISPNYGGTGYNGKFKDKATLTVDKSSSTAYMELRSLTSEDSAVYYCARFNNYYYFDYWGQGTTLTVSS
VL: DIKMTQSPSSMYASLGERVTITCKASQDINSYLSWCQQKPGKSPKALIYRANSLVDGVPSRFSGSGSGQDYSLTISSLEYEDMGIYYCLQYDEFPYTFGGGTKLEMKR
notes: as for B1
B3: I23RB177 (antibody, mouse IgG2a, kappa, V domains shown)
VH: EVQLQQSGPELLKPGASVKISCKASGYTITDYTMHWVKQSHGKSLEWIGGINPNYGGTSYNEKFKDKATLTVDKSSSTAYMELRSLTSEDSAVFYCVRGNIYFDYWGQGTTLTVSS
VL: B2 VL with D1N, I2T, K3Q, C36F, S53R, L89Q, Y96R, G100A, M106L
notes: as for B1
B4: I23RB321 (antibody, mouse IgG2a, kappa, V domains shown)
VH: QVQLVQSGAEVKKPGSSVKVSCKASGGTFSSYGISWVRQAPGQGLEWMGWISAIFGTTNYAQKFQGRVTITADESTSTAYMELSSLRSEDTAVYYCARHWLQSFDYWGQGTLVTVSS
VL: DIQMTQSPSSLSASVGDRVTITCRASQSIGGDLNWYQQKPGKAPKLLIYAASSLQSGVPSRFSGSGSGTDFTLTISSLQPEDFATYYCQQSYSTPLTFGQGTKVEIKR
notes: phage display; human V regions, mouse IgG2a/kappa constant regions
B5: I23RB264 (antibody, mouse IgG2a, kappa, V domains shown)
VH: B4 VH with G33A, W50G, S52I, A53P, T58A, H99R, W100S, L101S, Q102P, S103G
VL: B4 VL with G30D, G31N, A50N, S91P, T94I
notes: as for B4
B6: I23RB319 (antibody, mouse IgG2a, kappa, V domains shown)
VH: B4 VH with V93L, H99P, W100L, L101K, S103A
VL: B4 VL with G30T, G31D
notes: as for B4
B7: I23RB261 (antibody, mouse IgG2a, kappa, V domains shown)
VH: B4 VH with G33A, A53P, I54Y, T58A, H99M, W100Y, L101R, S103G
VL: B4 VL with G30N, G31D
notes: as for B4
B8: I23RB259 (antibody, mouse IgG2a, kappa, V domains shown)
VH: B4 VH with A53P, H99M, W100M, L101M, F104L
VL: not shown
notes: as for B4
B9: I23RB317 (antibody, mouse IgG2a, kappa, V domains shown)
VH: QVQLVQSGAEVKKPGSSVKVSCKASGGTFSSYAISWVRQAPGQGLEWMGGIIPIFGTANYAQKFQGRVTITADESTSTAYMELSSLRSEDTAVYYCARGNGVNYHSELDYWGQGTLVTVSS
VL: EIVLTQSPATLSLSPGERATLSCRASQSVDSFLAWYQQKPGQAPRLLIYTASNRATGIPARFSGSGSGTDFTLTISSLEPEDFAVYYCQQGNSAPFTFGQGTKVEIKR
notes: as for B4
B10: I23RB180 (antibody, mouse IgG2a, kappa, V domains shown)
VH: QVTLKESGPGILQPSQTLSLTCSFSGFSLSTYGMGVGWIRQPSGKGLEWLANIWWNDSKYHNAALKSRLTISKDTSKNQVFLKIASVDTADTATYYCGRIDGYYECVDVWGTGTSVTVSS
VL: DIQMTQSPASLSASVGETVTITCRASVNIHNYLAWYQQKQGKSPQLLVYNAKTLADGVPSRFSGSGSGTQYSLKINSLQPEDFGSYYCQHFWTTPYMYTFGAGTKLELKR
notes: as for B1
B11: I23RB161 (antibody, mouse IgG2a, kappa, V domains shown)
VH: EFQLQQSGPELVKPGASVKISCKASVYAFSSSWMNWVKQRPGKGLEWIGRIYPGDGDTNYNGKFKGKATLTADKSSSTAYMQLSSLTSEDSAVYFCARRYDFGSAMDYWGQGTSVTVSS
VL: DIVMTQSPAILSASPGEKVTMTCRASSSVSYMHWYQQKPGSSPKPWIYATSDLASGAPARFSGSGSGTSYSLTISRVEAEDAATYYCQQWSSNPPTFGGGTKLEIKR
notes: as for B1
B12: I23RB45 (antibody, mouse IgG2a, kappa, V domains shown)
VH: QVTLKESGPGILQPSQTLSLTCSFSGFSLSTYGMGVSWIRQPSGKGLEWLAHIYWDDDKRYNPSLKSRLTISKDTSNNQVFLKITSVDTADTATYYCAQRALPLLGQKAPFDYWGQGTTLTVSS
VL: DIVLTQSQKFISTSVGDRVSITCKASQNVRTAVAWYQQKPGQSPKLLIYLPSNRHTGVPDRFTGSGSGTVFTLTISNVQSEDQADYFCLQHWNYPLTFGAGTKLELKR
notes: as for B1
B13: I23RB31 (antibody, mouse IgG2a, kappa, V domains shown)
VH: EFQLQQSGAEMVRPGASVKLSCKASGYTFTGYWMNWVKQRPGQGLEWIGKIDPSDTETHYNQNFKDKATLTVDKSSSTAYMQLNSLTSEDSAVYYCARWGLGRNFAMDYWGQGTTLTVSS
VL: DIVLTQSPATLSVTPGDRVSLSCRASQSISDHLHWYQQKSHESPRLLIKFASQSISGIPSRFSGSGSGSDFTLSIDSVEPEDVGVYYCQNGHSFPLTFGSGTKLEIKR
notes: as for B1
B14: I23RB85 (antibody, mouse IgG2a, kappa, V domains shown)
VH: DVQLQESGPGLVAPSQSLSITCTVSGFSFNTYAITWVRQPPGRGLEWLGVLWPGGGISYNLALKSRLTISRDSSKSQVFLEMNSLQTDDTARYYCARNWRHYDGSYAMDFWGQGTSVTVSS
VL: DIVLTQSPLSLFVSLGDQASISCRSSQSLVHSNGNTYLHWYLQKPGQSPKLLIYKVSNRFSGVPDRFSGSGSGTDFTLKISRVEAEDLGVYFCSQSTHVPWTFGGGTRLEIKR
notes: as for B1
B15: I23RB260 (antibody, mouse IgG2a, kappa, V domains shown)
VH: QVQLVQSGAEVKKPGSSVKVSCKASGGTFSSYGISWVRQAPGQGLEWMGGIIPIFGTANYAQKFQGRVTITADESTSTAYMELSSLRSEDTAVYYCARDFGWSLWFDYWGQGTLVTVSS
VL: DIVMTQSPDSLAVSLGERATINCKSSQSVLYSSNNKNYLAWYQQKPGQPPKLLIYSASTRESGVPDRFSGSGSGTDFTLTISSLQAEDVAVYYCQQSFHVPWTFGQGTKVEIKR
notes: as for B4

The source of these data is US20250179196A1 (Janssen / Centocor, published 2025).

Where a chain is given by its changes, count along the chain named.

What is called Kd is the concentration at which binding is half-saturated. A word on the koff: it is a measure of how fast the partners let go of each other. Broadly, the kon is a measure of how fast the partners come together.

The target in one assay is T1, Recombinant human IL-23 receptor …. The assay is described as follows: SPR Biacore 8K, supernatant, analysis 1. Here is the method:
(§1) Affinity by SPR using Biacore 8K. Affinity measurements using Surface Plasmon Resonance (SPR) were performed using a Biacore 8K system (Cytiva). […] Approximately 9000-10000 RU (response units) of mAbs were immobilized. The kinetic experiments were performed at 25° C. in running buffer 1× of (HBS-P+ Buffer 10× (Cytiva #BR100671)+100 μg/ml BSA). To perform kinetic experiments, approximately 150 RU of mAbs were captured followed by injections of human IL-23R or rat IL-23R at concentrations ranging from 0.8 nM to 500 nM (in a 5-fold serial dilution). The association phase was monitored for 3 minutes at 50 μL/min, then followed by 30 minutes of buffer flow (dissociation phase). […] The collected data were processed using Biacore insight Evaluation software (Version 3.0.12.15655). The kinetic analysis of the data was performed using a Langmuir 1:1 binding model. The result for each mAb was reported in the format of Ka (On-rate), Kd (Off-rate) and KD (equilibrium dissociation constant).
As for B1, the Kd came to 263 nM, the koff amounted to 0.0493 s⁻¹ and the kon was found to be 188000 M⁻¹ s⁻¹.
Regarding B2, the dissociation constant (Kd) stood at 5.15 nM, the koff came out at 0.00011 s⁻¹ and the kon came out at 21400 M⁻¹ s⁻¹.
Regarding B3, the Kd came to 5.7 nM, the koff was 0.000107 s⁻¹ and the kon came to 18800 M⁻¹ s⁻¹.
Regarding B4, the Kd was 18.4 nM, the koff turned out to be 0.000384 s⁻¹ and the kon is 20900 M⁻¹ s⁻¹.
For B5, in that order: 17.9 nM, 0.000847 s⁻¹ and 47400 M⁻¹ s⁻¹.
Turning to B6, the Kd came out at 9.05 nM, the koff worked out at 8.01e-05 s⁻¹ and the kon amounted to 8850 M⁻¹ s⁻¹.
For B7, in that order: 22.5 nM, 0.000402 s⁻¹ and 17900 M⁻¹ s⁻¹.
For B8, in that order: 13.4 nM, 0.000752 s⁻¹ and 55900 M⁻¹ s⁻¹.
Turning to B9, the Kd was 25.2 nM, the koff turned out to be 0.000596 s⁻¹ and the kon came out at 23600 M⁻¹ s⁻¹.
On the same counts, the results for B10 are 150 nM, 0.0302 s⁻¹ and 201000 M⁻¹ s⁻¹.
On the same counts, the results for B11 are 84.5 nM, 0.0274 s⁻¹ and 324000 M⁻¹ s⁻¹.
Turning to B12, the Kd was determined as 21 nM, the koff was found to be 0.00332 s⁻¹ and the kon was 158000 M⁻¹ s⁻¹.
On the same counts, the results for B13 are 18.9 nM, 0.00123 s⁻¹ and 65500 M⁻¹ s⁻¹.
For B14, in that order: 1.08 nM, 0.000226 s⁻¹ and 210000 M⁻¹ s⁻¹.
For B15, in that order: 4.75 nM, 8.72e-05 s⁻¹ and 18400 M⁻¹ s⁻¹.

A further assay has the same target. The assay is described as follows: SPR Biacore 8K, supernatant, analysis 2. As for the experimental part:
as §1
On the technique in general: SPR reads the build-up and loss of mass on a sensor chip optically.
In the case of B12, the Kd turned out to be 22.5 nM, the koff was 0.00456 s⁻¹ and the kon was determined as 203000 M⁻¹ s⁻¹.
On the same counts, the results for B13 are 8.55 nM, 0.000781 s⁻¹ and 91300 M⁻¹ s⁻¹.
For B14, in that order: 1.43 nM, 0.000178 s⁻¹ and 124000 M⁻¹ s⁻¹.
